Source: patent publication US20080075733A1

Molecular target: Fc receptor on THP-1 cells
Assay: cell-based or functional assay

Q: With “human IgG1 (heat aggregated, coated on wells) (antibody)” as the substance, how does the TNF-α secretion from THP-1 cells on coated wells (10 µg/well, heat aggregated) read?
A: > 40 ng/well
